Four compounds from patent publication US20220363623A1, “IMAGING AND THERAPEUTIC COMPOSITIONS” (priority 2019, published 2022) can be followed below.

A short description of data set [1]: in vivo. Set-up: species or system mice. The conditions noted are these: male, mouse, iv, total radioactivity. The method, then: PET-CT imaging and Biodistribution. Male Balb/c nude mice (age 8.5 weeks) or Male NSG mice (age 12 weeks) were inoculated subcutaneously on the right flank with 6×10^6 LNCap cells in PBS:Matrigel (1:1). Mice were weighed and tumours measured twice weekly using electronic callipers. Tumour volume (mm^3) was calculated as length×width×height×π/6. Mice were assigned for imaging and biodistribution studies (tumour volumes: 85-450 mm3). ^89Zr-DFOSq-PSMA tracers were then administered intravenously by tail vein injection to 6 mice. At 1, 2, 4 and 18 hr post injection three mice were anaesthetised using isoflurane and placed on the imaging bed of a G8 PET/CT scanner (Perkin Elmer). A CT scan was performed and followed immediately by a 10 min static PET scan. PET images were reconstructed using the maximal likelihood and expectation maximization (ML-EM) algorithm. PET Images were analysed using VivoQuant (Invicro) and Tumour SUVmax or Tumour SUVmax/background average (TBR) determined. After imaging at 18 hr mice were euthanised and selected tissues were excised, weighed and counted using a Capintec (Captus 4000e) gamma counter. A separate cohort of 3 mice was harvested at 1 hr post injection for biodistribution analysis as above. The data was analysed using GraphPad Prism 7 and differences between tracers analysed using a t-test.
^89Zr Labelled tracers: The ^89Zr radiolabelled PSMA tracers were injected intravenously via tail vein to LNCaP (human PSMA expressing prostate cancer cell line) tumour bearing mice. At 1, 2, 4 and 18 h post-injection the mice were anaesthetised with isoflurane and imaged over 10 min. The representative PET images of mice injected with ^89Zr radiolabelled PSMA tracers at 1 and 18 hr are shown in FIG. 1 and quantitation of the Tumour SUVmax for each tracer is shown in FIG. 2a. […] There was a trend for higher tumour SUVmax for (4) tracer compared to all other tracers at all time points. […] A comparison of tumour uptake values is shown in FIG. 2b and the tissue biodistribution data for the tracers at 1 and 18 hr is summarised in FIG. 3.
^68Ga Labelled tracers: Representative PET images of mice injected with ^68Ga(1) and ^68Ga(4) are shown in FIG. 4 and quantitation of the tumour SUVmax is shown in FIG. 5a. […] Tumour uptake of ^68Ga(4) was 1.6 and 1.8 fold higher than ^68Ga(1) at 1 and 2 hr p.i., respectively. This is consistent with the biodistribution results where tumour % ID/g for ^68Ga(4) was higher than ^68Ga(1) at 1 hr (10.8±1.3 vs 6.5±0.4) and at 2.5 hr (8.6±1.0 vs 4.1±0.5) p.i. […] (6.5±0.4% ID/g at 1 hr vs 4.1±0.5% ID/g at 2.5 hr). In contrast, there was no significant change in ^68Ga(4) tumour retention at 1 and 2.5 p.i. (10.8±1.3% ID/g vs […], FIG. 5b).

The subject of data set [2] is LNCap cells. Kind of data set: Cell binding and internalization studies in LNCap cells. The format is cell-based, human. The method, then: (§1) Cell binding and internalization studies. LNCap cells (150,000/well) were plated in RPMI 1640 medium containing 10% FBS into wells of a 24 well plate pre-coated with 0.05% poly-L-lysine and incubated overnight at 37° C. and 5% CO2. The following day cells were washed twice with PBS and incubated for 1 hour at 37° C. in 1 mL per well internalisation buffer (MEM, 1% FBS). The buffer was then replaced with 1 ml per well of a warmed solution containing 0.5 μCi ^89Zr-DFOsq-PSMA tracers in internalisation buffer. Cells were incubated in triplicate for 5, 15, 30 or 60 min at 37° C. and 5% CO2. At each time point, cells were washed twice with ice-cold PBS and the washes collected for counting (unbound fraction). Cells were then incubated twice for 10 min in saline containing 10 μM PMPA and each wash collected for counting (surface bound fraction). The cells were then solubilised in 1 M NaOH (internalised fraction). Total protein content was determined in this fraction using a BCA protein assay kit (Pierce). A Perkin Elmer 2480 Wizard automatic gamma counter was then used to measure Zr-89 radioactivity in unbound, surface bound and internalised fractions. Surface bound and internalised fractions were expressed as percentage of total added radioactivity per mg of protein. Non-specific membrane binding and internalisation was determined by incubating cells with the ^89Zr-DFOSq-PSMA tracers in the presence of excess (10 μM) PMPA. ^89Zr-DFOSq-PSMA tracers uptake at 60 min was also determined in DU145 cells (seeded at 125,000 cells/well), a PSMA negative cell line. The raw data was analysed using GraphPad Prism 7.

Data set [3] concerns DU145 cells. The experiment in a line: Tracer uptake in DU145 cells, a PSMA negative cell line. The format is cell-based. The conditions noted are these: 60 min, in words. The method, then: as §1, with “At each time point, cells were washed twice with ice-cold PBS and the washes collected for counting (unbound fraction). Cells were then incubated twice for 10 min in saline containing 10 μM PMPA and each wash collected for counting (surface bound fraction). The cells were then solubilised in 1 M NaOH (internalised fraction).” left out

Data set [4] has as its system AR42J (rat pancreatic cancer cell line) tumour. Kind of data set: in vivo. On the set-up: species or system mice. The conditions noted are these: mouse. The method, then:
(§2) PET-CT imaging and Biodistribution of Octreotate/tide Tracers. Female Balb/c nude mice (age 9 weeks) were inoculated subcutaneously on the right flank with 3×10^6 AR42J cells in PBS:Matrigel (1:1). Mice were weighed and tumours measured twice weekly using electronic callipers. Tumour volume (mm^3) was calculated as length^2×width/2. 12 mice were assigned for imaging and biodistribution studies (tumour volumes: 170-550 mm^3). DFOSqTIDE (2.5 MBq) and DFOSqTATE (2.2 MBq) were administered intravenously by tail vein injection to mice on. At 1, 2, 4 and 18 hr post injection three mice were anaesthetised using isoflurane and placed on the imaging bed of a G8 PET/CT scanner (Perkin Elmer). A CT scan was performed which was immediately followed by a 10 min static PET scan. PET images were reconstructed using the maximal likelihood and expectation maximization (ML-EM) algorithm. PET images were analysed using VivoQuant (Invicro) and Tumour SUVmax, Tumour SUVmax/background average (TBR) and Tumour SUVmax/liver average (TLR) determined. After imaging at 18 hr mice were euthanised and selected tissues were excised, weighed and counted using a Capintec (Captus 4000e) gamma counter. A separate cohort of 3 mice was harvested at 1 hr post injection for biodistribution analysis. The data was analysed using GraphPad Prism 7 and differences between tracers analysed using a t-test.
(§3) AR42J (rat pancreatic cancer cell line) tumour bearing Balb/c nude mice as described above were injected intravenously via tail vein injection with ^89ZrDFOSqTATE or ^89ZrDFOSqTIDE (2-3 MBq). At 1, 2, 4 and 18 h post-injection the mice were anaesthetised with isoflurane and imaged over 10 min. At 1 hr after injection of DFOSqTIDE and DFOSqTATE, uptake into kidney, tumour and liver was observed. Representative PET images of mice injected with DFOSqTIDE and DFOSqTATE are shown in FIG. 12 and quantitation of the tumour SUVmax for each radiotracer is summarised in FIG. 13a.
(§4) ^68GaDFOSq-TIDE and ^68GaDFOSq-TATE tracers were injected (2-3 MBq, 1 μg, 0.5 nmol) intravenously via tail vein to AR42J (rat pancreatic cancer cell line) tumour bearing Balb/c nude mice. PET images were acquired at 1 and 2 h post-injection (FIGS. 15a and b). […] Quantification of the uptake in the images using Standard Uptake Value (SUVmax=radioactivity in a tissue/injected activity/BW) confirms the higher uptake for ^68GaDFOSq-TATE (1 h; SUVmax 1.8±0.2, compared to 1.21±0.20, FIG. 15c). The higher tumor uptake of ^68GaDFOSqTATE was also associated with a higher degree of tumor retention at 2 h post injection with only a 5% reduction in SUVmax whereas the tumor SUVmax for ^68GaDFOSqTIDE reduced by 30% ^68GaDFOSqTATE at 2 h post injection. Both tracers clear rapidly from the blood and there is low uptake in bone consistent with stable gallium-68 complexes as well as low uptake in muscle. Both tracers have significant uptake in the kidneys and bladder.

The nature of data set [5]: in vivo. Set-up: species or system mice. Conditions: female, Balb/c nude, mouse, iv, total radioactivity. The method, then:
as §2, with “t-test. The high tumor uptake was confirmed by an ex vivo biodistribution study in the same mouse model where mice were injected with either ^68GaDFOSq-TIDE and ^68GaDFOSq-TATE (2-3 MBq, 1 μg, 0.5 nmol) and then euthanised at either 1 h or 2 h after administration. The amount of injected activity per gram of tissue (% IA/g) in the tumor and major organs was quantified (FIG. 16).” for “t-test.”

The subject of data set [6] is AR42J (rat pancreatic cancer cell line) tumour. The experiment in a line: in vivo. On the set-up: species or system mice. The conditions noted are these: female, Balb/c nude, mouse, iv, 18 h. On the procedure:
as §2, with “t-test. The high tumor uptake was confirmed by an ex vivo biodistribution study in the same mouse model where mice were injected with either ^68GaDFOSq-TIDE and ^68GaDFOSq-TATE (2-3 MBq, 1 μg, 0.5 nmol) and then euthanised at either 1 h or 2 h after administration. The amount of injected activity per gram of tissue (% IA/g) in the tumor and major organs was quantified (FIG. 16).” for “t-test.”

The nature of data set [7]: in vivo. On the set-up: species or system mice. The conditions noted are these: female, Balb/c nude, mouse, iv, total radioactivity. On the procedure:
as §2, §3, §4
The source holds these as a separate data set.

The mark [8] stands for this setting: Tumour uptake % IA/g 1 h post injection.

The structures appear in SMILES notation. *1 amine or outer side, *2 acyl side, *3 side chain or, on linkers, in order; H or OH if unused. Where a SMILES comes first, the peptide text is derived from it. Bridges are numbered along the chain shown (N, C = ends). Side-chain parts run from the residue outwards. [ ]: non-standard residue; d: D form. The star is where a group is joined. X1 = O=C([C@@H](Cc1ccccc1)N(c1c(NCCCCCN(O)[*:3])c(=O)c1=O)[*:1])[*:2]; X2 = CC(=O)N(O)CCCCCNC(=O)CCC(=O)N(O)CCCCCN*; Thr(ol) = C[C@@H](O)[C@H](N)CO; Suc = O=C(CCC(=O)[*:2])[*:1]

For the compound `CC(=O)N(O)CCCCCNC(=O)CCC(=O)N(O)CCCCCNC(=O)CCC(=O)N(O)CCCCCNc1c(NCc2ccc(C(=O)NCCCCC(NC(=O)NC(CCC(=O)O)C(=O)O)C(=O)O)cc2)c(=O)c1=O` (centres unmarked) [(1), DFOSq-PhPSMA ligand], the tissue uptake at 1 h in data set [1] (Tumour Uptake % ID/g 1 h pi) worked out at 5.4 %ID/g. Further, the tissue uptake at 18 h in data set [1] (Tumour Uptake % ID/g 18 h pi) turned out to be 2.2 %ID/g. In data set [2] (89Zr tracers, 60 min, 37° C.), the “Cell Uptake % AR/mg protein (60 min) internalized” value was found to be 7 % AR/mg protein. Also, the “Internalised activity in the presence of excess PMPA” value in data set [2] (excess (10 μM) PMPA) was “up to 5 % AR/mg protein”. This compound also gave a Surface binding in data set [2] (presence and absence of excess PMPA, all timepoints) of 2 % AR/mg protein. In addition, the “Binding in DU145, PSMA negative cell line” value in data set [3] is recorded as “Minimal binding”.

With `CC(=O)N(O)CCCCCNC(=O)CCC(=O)N(O)CCCCCNC(=O)CCC(=O)N(O)CCCCCNc1c(N[C@H](Cc2ccccc2)C(=O)N[C@H]2CSSC[C@@H](C(=O)N[C@H](CO)[C@@H](C)O)NC(=O)[C@H]([C@@H](C)O)NC(=O)[C@H](CCCCN)NC(=O)[C@@H](Cc3c[nH]c4ccccc34)NC(=O)[C@H](Cc3ccc(O)cc3)NC2=O)c(=O)c1=O` [DFOSqTIDE] (H-[X1]([Suc-X2])CY[dW]KTC[Thr(ol)]; disulfide 2-7), the “Tumour SUVmax Clearance %” value in data set [4] turned out to be 55%. The tissue uptake at 1 h in data set [5] (Tumour Uptake % ID/g 1 h pi) stood at 3.4 ± 0.4 %ID/g. In addition, the tissue uptake at 18 h in data set [5] (Tumour Uptake % ID/g 18 h pi) is 1.7 ± 0.1 %ID/g. Besides, the “Tumour Uptake % ID/g 18 h pi” value in data set [6] was 1.5±0.1 % ID/g.

With `CC(=O)N(O)CCCCCNC(=O)CCC(=O)N(O)CCCCCNC(=O)CCC(=O)N(O)CCCCCNc1c(N[C@H](Cc2ccccc2)C(=O)N[C@H]2CSSC[C@@H](C(=O)N[C@H](CO)[C@@H](C)O)NC(=O)[C@H]([C@@H](C)O)NC(=O)[C@H](CCCCN)NC(=O)[C@@H](Cc3c[nH]c4ccccc34)NC(=O)[C@H](Cc3ccc(O)cc3)NC2=O)c(=O)c1=O` (68Ga complex, metal not drawn) [^68GaDFOSqTIDE] (H-[X1]([Suc-X2])CY[dW]KTC[Thr(ol)]; disulfide 2-7), in data set [7], the SUV at 1 h stood at 1.21 ± 0.2 SUV. For the same compound, the “Reduction in tumor SUVmax at 2 h post injection” value in data set [4] was determined as 30%. Also, the results for the tissue uptake at 1 h in data set [5] (setting [8]) and in data set [5] (Uptake in the kidneys) were 8.81 ± 1.03 %ID/g and 37.6 ± 3.5 %ID/g, respectively. Also, the tissue uptake at 2 h in data set [5] (Tumour uptake % IA/g 2 h post injection) turned out to be 4.4 ± 1.1 %ID/g.

As to `CC(=O)N(O)CCCCCNC(=O)CCC(=O)N(O)CCCCCNC(=O)CCC(=O)N(O)CCCCCNc1c(N[C@H](Cc2ccccc2)C(=O)N[C@H]2CSSC[C@@H](C(=O)N[C@H](C(=O)O)[C@@H](C)O)NC(=O)[C@H]([C@@H](C)O)NC(=O)[C@H](CCCCN)NC(=O)[C@@H](Cc3c[nH]c4ccccc34)NC(=O)[C@H](Cc3ccc(O)cc3)NC2=O)c(=O)c1=O` (68Ga complex, metal not drawn) [^68GaDFOSqTATE] (H-[X1]([Suc-X2])CY[dW]KTCT-OH; disulfide 2-7), in data set [7], the SUV at 1 h was determined as 1.8 ± 0.2 SUV. In data set [4], the “Reduction in tumor SUVmax at 2 h post injection” value turned out to be 5%. Besides, the tissue uptake at 2 h in data set [5] (Tumor uptake % ID/g 2 h post injection) came to 9.22 ± 0.92 %ID/g. For the same compound, the figures for the tissue uptake at 1 h in data set [5] (setting [8]) and in data set [5] (Uptake in the kidneys) were 9.8 ± 2.33 %ID/g and 16 ± 3.27 %ID/g, respectively.
